From publication PMC3499988 (Biochemistry, 2011)
Numbering of substitutions follows the chain as printed. In names and notes the source's numbering stands.

B1: Fab m18 F99A (HCDR3) (Fab, V domains shown)
VH: VQLLESGPGVVKPSETLSLTCTVSGASVNNYYWTWVRQPPGKGLEWIGNVYDSGDTNYNPSLSSRLSLSMDTSKNQFSLRLSSVTAADTATYYCARYHRHAIRGPLSFDYWGRGTLVTVSS
VL: LQMTQSPSFLSASVGDRVSITCRASQDIQKFLAWYQLTPGDAPKLLMYSASTLQSGVPSRFSGSGSGTEFTLTISGLQPEDFATYYCQHLKRYPYTFGQGTKLEIS
B2: Fab m18 K31A (LCDR1) (Fab, V domains shown)
VH: B1 VH with A101F
VL: B1 VL with K30A
B3: Fab m18 S52A (LCDR2) (Fab, V domains shown)
VH: B1 VH with A101F
VL: B1 VL with S51A
B4: Fab m18 F99Y (HCDR3) (Fab, V domains shown)
VH: B1 VH with A101Y
VL: B1 VL
B5: Fab m18 I100A (HCDR3) (Fab, V domains shown)
VH: B1 VH with A101F, I102A
VL: B1 VL

The binders below were run against T1, HIV-1 YU-2 gp120 (HIV-1 (YU-2), UniProt P35961) (assay: SPR).

B1: binds.

Molecular target: T1, HIV-1 YU-2 gp120
Assay: SPR
Remark: another data set of the same source

Going from B2 to B3, the Kd rises from 3.1 nM to 4.7 nM (1.5-fold).

Going from B4 to B1, the Kd rises from 1.1 nM to 5.9 nM (5.4-fold).

Binder B5 has a Kd of 13.1 nM.

B2 and B3 are within 1.5-fold of each other in koff: 8.9e-05 s⁻¹ for the first, 8.1e-05 s⁻¹ for the second.

B4 and B1 are within error of each other in koff: 0.00011 ± 0.9 s⁻¹ for the first, 0.00026 ± 1.5 s⁻¹ for the second.

B5 was tested, and the koff was 0.00036 ± 1.4 s⁻¹.

Compared with B2, B3 is 1.7-fold lower in kon: 29000 ± 0.4 M⁻¹ s⁻¹ for the first, 17000 ± 0.9 M⁻¹ s⁻¹ for the second.

Going from B4 to B1, the kon falls from 94000 ± 2.5 M⁻¹ s⁻¹ to 45000 ± 2.5 M⁻¹ s⁻¹ (2.1-fold).

B5 gave a kon of 27000 ± 1.3 M⁻¹ s⁻¹.

These binders were tested against T2, HIV-1 HXBc2 gp120 (HIV-1 (HXBc2), UniProt P04578) (assay: SPR).

Compared with B2, B3 is 31-fold lower in Kd: 18.7 nM for the first, 0.6 nM for the second.

B4 and B1 are within 1.5-fold of each other in Kd: 0.9 nM for the first, 1.3 nM for the second.

Work on B5 yielded a Kd of 2.8 nM.

B2 and B3 are within error of each other in koff: 0.00031 ± 1.1 s⁻¹ for the first, 2e-05 s⁻¹ for the second.

B4 and B1 are within error of each other in koff: 9.2e-05 s⁻¹ for the first, 0.00013 ± 0.1 s⁻¹ for the second.

In the case of B5, the koff is reported as 4.6e-05 s⁻¹.

First: B2
Second: B3
The kon of the first is 2.1-fold lower: 17000 ± 0.5 M⁻¹ s⁻¹ for the first, 35000 ± 2.1 M⁻¹ s⁻¹ for the second.

B4 and B1 are the same in kon: 100000 ± 0.03 M⁻¹ s⁻¹ for the first, 100000 ± 0.02 M⁻¹ s⁻¹ for the second.

B5 gave a kon of 17000 ± 0.07 M⁻¹ s⁻¹.

Molecular target: T1, HIV-1 YU-2 gp120
Assay: SPR
Remark: another data set of the same source

B2 and B3 cannot be ordered by IC50: > 500 nM for the first, ≥ 500 nM for the second.

Compared with B4, B1 is higher in IC50: 53.7 ± 1.5 nM for the first, > 500 nM for the second.

B5 was tested, and the IC50 was > 500 nM.

Molecular target: T2, HIV-1 HXBc2 gp120
Assay: SPR
Remark: another data set of the same source

B2 and B3 cannot be ordered by IC50: > 500 nM for the first, > 360 nM for the second.

B4 and B1 are within error of each other in IC50: 62.8 ± 12.3 nM for the first, 58.2 ± 4.3 nM for the second.

In the case of B5, the IC50 is reported as > 500 nM.

Molecular target: T1, HIV-1 YU-2 gp120
Assay: SPR
Remark: another data set of the same source

B2 and B3 cannot be ordered by IC50: > 500 nM for the first, > 500 nM for the second.

First: B4
Second: B1
The IC50 of the first is lower: 75.3 ± 20.6 nM for the first, > 500 nM for the second.

With B5 the IC50 was > 500 nM.

Molecular target: T2, HIV-1 HXBc2 gp120
Assay: SPR
Remark: another data set of the same source

B2 and B3 cannot be ordered by IC50: > 500 nM for the first, > 360 nM for the second.

B4 and B1 are within error of each other in IC50: 66.7 ± 6.1 nM for the first, 69.5 ± 3.7 nM for the second.

For B5, the IC50 was > 500 nM.
